Measured values reported in patent publication US12365732 (23ANDME, dated 2025).

B1: mAb1.v7 Fab (Fab, V domains shown)
VH: EVQLVQSGAEVKKPGASVKVSCKASGFTFTNNWMHWVRQAPGQGLEWIGMIHPNSGITNINEKFKNRVTMTTDTSTSTAYMELRSLRSEDTAVYYCRSDGTYEGYFDYWGQGTLVTVSS
VL: DIQLTQSPSSLSASVGDRVTITCKASQNVGTAIVWYQQKPGKAPKVLIYSASTRYTGVPSRFSGSGSGTDFTLTISSLQPEDFATYYCQQYSSSPLTFGQGTKVEIK
B2: mAb1.v7.9 Fab (Fab, V domains shown)
VH: EVQLVQSGAEVKKPGASVKVSCKASGFTFTNNWRHWVRQAPGQGLEWIGMIHMNSGITNINEKFKNRVTMTTDTSTSTAYMELRSLRSEDTAVYYCRSDGVYEGYFDYWGQGTLVTVSS
VL: DIQLTQSPSSLSASVGDRVTITCKASQNVGTAIVWYQQKPGKAPKVLIYSASTRYTGVPSRFSGSGSGTDFTLTISSLQPEDFATYYCQQYSSSPLTFGQGTKVEIK
notes: also called M34R/P52aM/T97V
B3: mAb1.v7.2 Fab (Fab, V domains shown)
VH: EVQLVQSGAEVKKPGASVKVSCKASGFTFTNNWRHWVRQAPGQGLEWIGMIHFNSGITNINEKFKNRVTMTTDTSTSTAYMELRSLRSEDTAVYYCRSDGVYEGYFDYWGQGTLVTVSS
VL: DIQLTQSPSSLSASVGDRVTITCKASQNVGTAIVWYQQKPGKAPKVLIYSASTRYTGVPSRFSGSGSGTDFTLTISSLQPEDFATYYCQQYSSSPLTFGQGTKVEIK
notes: also called M34R/P52aF/T97V
B4: mAb1.v7.70 Fab (Fab, V domains shown)
VH: EVQLVQSGAEVKKPGASVKVSCKASGFTFTNRWMHWVRQAPGQGLEWIGMIHANSGITNINEKFKNRVTMTTDTSTSTAYMELRSLRSEDTAVYYCRSDGVYEGYFDYWGQGTLVTVSS
VL: DIQLTQSPSSLSASVGDRVTITCKASQNVGTAIVWYQQKPGKAPKVLIYSASTRYTGVPSRFSGSGSGTDFTLTISSLQPEDFATYYCQQYSSSPLTFGQGTKVEIK
notes: also called N32R/P52aA/T97V
B5: mAb1.v7.48 Fab (Fab, V domains shown)
VH: EVQLVQSGAEVKKPGASVKVSCKASGFTFTNRWMHWVRQAPGQGLEWIGMIHHNSGITNINEKFKNRVTMTTDTSTSTAYMELRSLRSEDTAVYYCRSDGVYEGYFDYWGQGTLVTVSS
VL: DIQLTQSPSSLSASVGDRVTITCKASQNVGTAIVWYQQKPGKAPKVLIYSASTRYTGVPSRFSGSGSGTDFTLTISSLQPEDFATYYCQQYSSSPLTFGQGTKVEIK
notes: also called N32R/P52aH/T97V
B6: mAb1.v7.16 Fab (Fab, V domains shown)
VH: EVQLVQSGAEVKKPGASVKVSCKASGFTFTNNWRHWVRQAPGQGLEWIGMIHPNSGITNINEKFKNRVTMTTDTSTSTAYMELRSLRSEDTAVYYCRSDGVYEGYFDYWGQGTLVTVSS
VL: DIQLTQSPSSLSASVGDRVTITCKASQNVGTAIVWYQQKPGKAPKVLIYSASTRYTGVPSRFSGSGSGTDFTLTISSLQPEDFATYYCQQYSSSPLTFGQGTKVEIK
notes: also called M34R/T97V

Assays:
[1] = molecular target: T1, hu-CD96 (soluble, isoform 2 extracellular domain) (human, UniProt P40200 22-516, biotinylated in Octet and blocking ELISA); experiment: phage competition ELISA, soluble CD96 vs coated hu-CD96
T1 construct: the assays name only hu-CD96; also called hCD96; biotinylated hu-CD96
T1 sequence: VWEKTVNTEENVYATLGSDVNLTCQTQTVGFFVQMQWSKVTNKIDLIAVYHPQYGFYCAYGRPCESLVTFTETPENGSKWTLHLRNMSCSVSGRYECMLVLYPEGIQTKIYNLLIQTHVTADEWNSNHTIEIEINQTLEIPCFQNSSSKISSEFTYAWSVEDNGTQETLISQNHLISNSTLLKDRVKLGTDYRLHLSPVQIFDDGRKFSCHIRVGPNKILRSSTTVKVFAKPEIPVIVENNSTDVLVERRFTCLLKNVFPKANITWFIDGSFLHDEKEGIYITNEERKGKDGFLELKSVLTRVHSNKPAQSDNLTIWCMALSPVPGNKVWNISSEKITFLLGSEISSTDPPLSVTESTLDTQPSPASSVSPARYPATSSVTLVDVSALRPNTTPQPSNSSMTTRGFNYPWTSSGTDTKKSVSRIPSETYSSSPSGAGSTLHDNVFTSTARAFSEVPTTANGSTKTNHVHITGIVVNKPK
Protocol: 192 colonies from most stringent selections (biotinylated 0.1 nM of hu-CD96 or cy-CD96 with 1000× non-biotinylated human or cy-CD96) were grown in 400 µL 2YT with 4 µL helper phage M13KO7 overnight at 37° C. with shaking. After spinning down the pellet, the phage supernatant was diluted 1:1 with 2 nM hu-CD96, 20 nM cy-CD96 and ELISA buffer (0.5% BSA and 0.05% TWEEN®20 in PBS) in total […] and incubated for two hours at room temperature with agitation. The […] of mixture was transferred to hu-CD96 coated plate for 15 min to capture unbound phage. The plate was washed with wash buffer (0.05% TWEEN®20 in PBS), and HRP-conjugated anti-M13 antibody (Sino biological, Cat #11973-MM05-H-50) was added in ELISA buffer for 30 min. […] Enzymatic color development was stopped using TMB stop solution (VWR, Cat #95059-200). Plates were analyzed with a SpectraMax i3X plate reader (Molecular Devices). The % inhibition was calculated by the $OD450$ of wells with hu-CD96/cy-CD96 competitor divided by $OD450$ of wells with buffer alone. The lower % inhibition indicated higher phage $IC50$ against hu-CD96 or cy-CD96.
Selected top inhibition % phage variants from single spot competition were purified from culture supernatants. The optimal phage concentration was incubated with serially-diluted hu-CD96 or cy-CD96 in ELISA buffer in NUNC F plate for two hours. The […] of the mixture was transferred to hu-CD96 coated wells for 15 min to capture unbound phage. The plate was washed with wash buffer (0.05% TWEEN®20 in PBS), and HRP-conjugated anti-M13 antibody (Sino biological, Cat #11973-MM05-H-50) was added in ELISA buffer for 30 min. The plates were washed and developed as described above. The absorbance at 450 nm was plotted as a function of antigen concentration in solution to determine phage $IC50$.

[2] = molecular target: T2, cy-CD96 (soluble, extracellular domain) (cynomolgus monkey, UniProt P40200 22-516 (human entry), biotinylated in Octet and blocking ELISA); experiment: BLI (Octet), biotin-CD96 on SA, Fab analyte
T2 construct: the assays name only cy-CD96; also called biotinylated cy-CD96
T2 chain: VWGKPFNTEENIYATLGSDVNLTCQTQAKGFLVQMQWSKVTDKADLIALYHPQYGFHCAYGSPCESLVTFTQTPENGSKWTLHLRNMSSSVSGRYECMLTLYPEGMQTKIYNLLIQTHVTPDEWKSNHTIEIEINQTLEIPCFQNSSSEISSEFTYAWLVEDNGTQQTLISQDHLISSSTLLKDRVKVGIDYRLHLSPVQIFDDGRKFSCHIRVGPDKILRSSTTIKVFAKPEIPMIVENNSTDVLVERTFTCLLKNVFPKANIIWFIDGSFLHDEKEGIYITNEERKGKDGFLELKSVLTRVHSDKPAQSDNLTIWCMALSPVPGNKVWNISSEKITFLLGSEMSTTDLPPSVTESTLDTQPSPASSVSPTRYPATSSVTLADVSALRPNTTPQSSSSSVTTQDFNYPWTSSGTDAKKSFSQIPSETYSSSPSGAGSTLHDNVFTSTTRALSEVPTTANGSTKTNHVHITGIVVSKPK
In short: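 Biotinylated hu-CD96 or cy-CD96 at 10 µg/mL loaded on streptavidin sensors in PBS with 0.01% Tween-20 at 30° C; Fab analytes in three-fold dilutions from 1 µM, association 200-300 s, dissociation 1000 s. Reference-subtracted traces (minimum four concentrations) globally fitted to a 1:1 model for K_D.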

Binder	apparent IC50 (pooled screen) [1] [nM]	Kd [2] [nM]	IC50 [1] [nM]
B1	0.5	–	–
B2	–	129	0.11
B3	–	39.1	0.08
B4	–	52.6	0.14
B5	–	68	0.1
B6	–	97.9	0.1
